The supplement of paper PMC7125110
± gives the standard error. For some of these results: Variants at the floor of the assay were thinned out.

B1: glmS ribozyme (parent)
chain: AUAAAAGCGCCAGAACUACAGAAAUGUAGUUGACGAGGAGGAGGUUUAUCGAAUUUUCGGCGGAUGCCUCCAAA

Assays:
Conditions in all cases: with glucosamine-6-phosphate
[1] = variants of: B1; test: kcat; higher = faster cleavage; RNA array
Procedure, shortened: (§1)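 Glucosamine-6-phosphate in HEPES/KCl/Mg(OAc)2 buffer, at 40 μM to 10 mM, was flowed over barcoded ribozyme variants transcribed in situ by E. coli RNA polymerase on sequenced MiSeq chips. Tracking was through a hybridised Cy3 probe at 37 °C. kobs, kcat and KM came from exponential decay fits and weighted Michaelis–Menten fits of normalised per-tile medians.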

[2] = variants of: B1; test: self-cleavage kobs at 640 uM GlcN6P; higher = faster cleavage; RNA array
Procedure, shortened: as §1

[3] = variants of: B1; test: self-cleavage kobs at 10000 uM GlcN6P; higher = faster cleavage; RNA array
Procedure, shortened: as §1

[4] = variants of: B1; test: KM; higher = weaker cofactor use; RNA array
Procedure, shortened: as §1

[5] = variants of: B1; test: self-cleavage kobs at 2500 uM GlcN6P; higher = faster cleavage; RNA array
Procedure, shortened: as §1

[6] = variants of: B1; test: self-cleavage kobs at 40 uM GlcN6P; higher = faster cleavage; RNA array
Procedure, shortened: as §1

[7] = variants of: B1; test: self-cleavage kobs at 160 uM GlcN6P; higher = faster cleavage; RNA array
Procedure, shortened: as §1

Row | Variant | kcat [1] [s⁻¹] | self-cleavage kobs at 640 uM GlcN6P [2] [s⁻¹] | self-cleavage kobs at 10000 uM GlcN6P [3] [s⁻¹] | KM [4] [µM] | self-cleavage kobs at 2500 uM GlcN6P [5] [s⁻¹] | self-cleavage kobs at 40 uM GlcN6P [6] [s⁻¹] | self-cleavage kobs at 160 uM GlcN6P [7] [s⁻¹]
1 | AUAAAAGCGCCAGUACUACAGAAAUGUAGUUGACGGGGAGGAGGUUUAUCGAAUUUUCGGCGGAUUCCUCCAAA [A14U A36G G66U] | < 1e-05 | < 1e-05 | < 1e-05 | – | – | – | –
2 | AUAAAAGCGCCAGGACUACAGAAAUGUAGUUGACGAGGAGGAGGUUUAUCGAAUUUUCAGCGGAUGCCUCCAAA [A14G G59A] | 0.000294 ± 1.8e-05 | 6.96e-05 ± 1.2e-05 | 0.000239 ± 3e-05 | 2010 ± 250 | 0.000183 ± 3.7e-05 | – | –
3 | AUAAAAGCGCCAGGACUACAGAAAUGUAGUUGACGAGGAGGAGGUAUAUCGAAUUUUCGGCGGAUGCCUCCAAA [A14G U46A] | 0.0109 ± 0.0043 | 0.00157 ± 0.00055 | 0.00723 ± 0.0012 | – | 0.0054 ± 0.001 | 0.000166 ± 3.1e-05 | 0.000271 ± 7.3e-05
4 | AUAAAAGCGCCAGGACUACAGAAAUGUAGUUGACGAGGAGGAGGUUUAUCGAAUUUUCGACGGAUGCCUCCAAA [A14G G60A] | 8.13e-05 ± 1.1e-05 | – | 6.17e-05 ± 1.2e-05 | 3020 ± 1300 | 4.34e-05 ± 1.9e-05 | – | –
5 | AUAAAAGCGCCAGGACUACAGAAAUGUAGUUGACGAGGAGGAGGUUUAUCGAAUUUUCGGCGGAUUCCUCCAAA [A14G G66U] | 0.00542 ± 0.00096 | 0.00094 ± 0.00012 | 0.00464 ± 0.0004 | 2220 ± 560 | 0.00287 ± 0.00033 | 0.000114 ± 1.2e-05 | 0.00039 ± 4e-05
6 | AUAAAAGCGCCAGUGCUACAGAAAUGUAGUUGAGGAGGAGGAGGUUUAUAGAAUUUUCGGCUGAUGCCUCCAAA [A14U A15G C34G C50A G62U] | 1.29e-05 ± 5.5e-06 | – | – | – | – | – | –
7 | AUAAAAGCGCCAGGACUACAGAAAUGUAGUUGACGAGGAGGAGGUUUAUCGAAUUGUCGGCGGAUGCCUCCAAA [A14G U56G] | 0.0818 ± 0.014 | 0.0223 ± 0.0035 | 0.0704 ± 0.02 | 1560 ± 320 | 0.0673 ± 0.027 | 0.00201 ± 0.00033 | 0.0087 ± 0.0018
8 | AUAAAAGCGCCAGUGCUACAGAAAUGUAGUUGACGAGGAGGAAGUUUAUCGAAUUUUCGGCGGAUGCCUCCAAA [A14U A15G G43A] | 1.46e-05 ± 6.9e-06 | – | – | – | – | – | –
9 | AUAAAAGCGCCAGUACUACAGAAAUGUAGUUGACGAGGAGGAGGUUUCUCGAAUUUUCGGCGGAUGCCUCCAAA [A14U A48C] | 7.33e-05 ± 4.6e-06 | – | 6.17e-05 ± 9.4e-06 | 2020 ± 420 | 3.85e-05 ± 9.5e-06 | – | –
10 | AUAAAAGCGCCAGGACUACAGAAAUGUAGUUGACGAGGAGGAUGUUUAUCGAAUUUUCGGCGGAUGCCUCCAAA [A14G G43U] | 0.000159 ± 2.6e-05 | 3.9e-05 ± 8.4e-06 | 0.000131 ± 1.5e-05 | 2770 ± 980 | 6.85e-05 ± 8.5e-06 | – | –
11 | AUAAAAGCGCCAGGACUACAGAAAUGUAGUUGACGACGAGGAGGUUUAUCGAAUUUUCGGCGGAUGCCUCCAAA [A14G G37C] | 0.000101 ± 3.2e-05 | 5.36e-05 ± 1.6e-05 | 8.64e-05 ± 9.6e-06 | – | 4.49e-05 ± 9e-06 | – | –
12 | AUAAAAGCGCCAGGACUACAGAAAUGUAGUUGACGAUGAGGAGGUUUAUCGAAUUUUCGGCGGAUGCCUCCAAA [A14G G37U] | 2.35e-05 ± 1.3e-06 | – | 2.02e-05 ± 1e-05 | 1680 ± 470 | – | < 1e-05 | –
13 | AUAAAAGCGCCAGUACUACAGAAAUGUAGUUGACGAGGGGGAGGUUUAUCGAAUUUUCGGCGGAUGCCUCCAAA [A14U A39G] | 0.0158 ± 0.0077 | 0.00493 ± 0.0011 | 0.0136 ± 0.0025 | – | 0.00644 ± 0.0013 | 0.000381 ± 6.3e-05 | 0.000604 ± 0.00015
14 | AUAAAAGCGCCAGUACUACAGAAAUGUAGUUGACGAGGCGGAGGUUUAUCGAAUUUUCGGCGGAUGCCUCCAAA [A14U A39C] | 0.00121 ± 0.00019 | 0.000203 ± 2.4e-05 | 0.000981 ± 9.1e-05 | 2790 ± 700 | 0.000537 ± 8.2e-05 | 2.83e-05 ± 7.2e-06 | 7.69e-05 ± 1.2e-05
15 | AUAAAAGCGCCAGGACUACAGAAAUGUAGUUGACGAGGAGGAUGUGUAUCGAAUUUUCGGCGGAUGCCUCCAAA [A14G G43U U46G] | 3.09e-05 ± 3.5e-06 | – | – | 1610 ± 590 | – | < 1e-05 | –
16 | AUAAAAGCGCCAGGACUACAGAAAUGUAGUUGACGAGGAGUAGGUUUAUCGAAUUUUCGGCGGAUGCCUCCAAA [A14G G41U] | 0.00179 ± 0.00049 | 0.00124 ± 0.00021 | – | 206 ± 99 | 0.00232 ± 0.00045 | 0.00033 ± 4.5e-05 | 0.000642 ± 0.00012
17 | AUAAAAGCGCCAGUACUACAGAAAUGUAGUUGUCGAGGAGGAGGUUUAUCGAAUUUUCGGCGGAUGCCUCCAAA [A14U A33U] | 0.000182 ± 2.6e-05 | – | 7.63e-05 ± 9.8e-06 | – | 2.81e-05 ± 1e-05 | – | –
